Results: the supplement of paper PMC12042874
± gives the uncertainty stated by the source.

Test: amyloid nucleation score (Sup35N fusion, yeast selection) (log enrichment); library NNK3; higher = more nucleation; inactive = no reads after selection
In short: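 The nucleation score is the DiMSum log enrichment of output over input reads, centred on the mode score of non-aggregating sequences. Only sequences with 100 or more input reads were scored, using Illumina sequencing of input and output plasmid inserts. Psi-negative yeast expressing Sup35N fused to peptides of 20 random codons were induced 24 hours with 100 μM copper sulfate and grown 7 days at 30°C on medium lacking adenine and uracil.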

| Substance | amyloid nucleation score |
| --- | --- |
| NELCVTFLGCRPYVPA | -0.469 ± 1.1 |
| LARRRSTCDICWLSYKATDL | inactive |
| WGVNYMLWDCIYEATLSLIP | inactive |
| VYGASTLSAHMWR | inactive |
| RSNLRLGSRDKPAIQL | inactive |
| LYFCKNKYTCWSACVNSGFN | inactive |
| NSFMCCRSWDTN | 2.71 ± 0.069 |
| PVTIFKETCWP | inactive |
| PRWLPVDGYEDSGVVEDKES | inactive |
| MFNFEFLC | 2.33 ± 0.085 |
| SVMLDNTVVFTIRSGHCSES | 1.13 ± 0.1 |
| LVGVSRRSREGDSTLSPSLG | inactive |
| FYSLWRNRYNNSNQEWDIRW | inactive |
| WYPGMCFESVDTMDRHLHND | inactive |
| LYSVLGVVSTDSRRDAEWCQ | inactive |
| GYESLYRQHLYDSSLCWESR | inactive |
| TDVMVYHPFL | inactive |
| PLEVLAKFFWDDWATHSMDL | inactive |
| CYFLQ | inactive |
| CIMRMTFTMITYCNSLSLGS | inactive |
| VTSTQVMNMLD | inactive |
| LMGVDSLLYRKHSGV | inactive |
| MSYMMSSTPSVFMACLGDS | inactive |

| Substance | amyloid nucleation score |
| --- | --- |
| FRNLSDVLVRLFPVQLLSYP | inactive |
| TYPRLNVHLLPLDFILYPH | inactive |
| FGGLWLICSVVYTLNCRSMV | 1.79 ± 0.081 |
| FLYYATGHRIFLV | inactive |
| RKSIGSLG | inactive |
| YSWGRWICHNVVE | -0.21 ± 0.74 |
| LYLGTSYHRNC | inactive |
| SGFSYRFRDSMGLDKYRCAN | inactive |
| VRWYCS | inactive |
| HHTKILSSYISWVYILITNS | inactive |
| STKSSLRYNLEQLPDLLKIV | inactive |
| EVFHIRMSVF | -0.577 ± 2.4 |
| IWSLDNARNYSIVRSVWLG | inactive |
| LCITPNLKSFFESYVRFSEL | inactive |
| HRKIRFGYSL | inactive |
| SESCFDMMPCLVGLKSERGQ | inactive |
| TFVDPGRV | -0.565 ± 1.1 |
| GTMVSEIDWVRLTYTGYSE | inactive |
| VVTHLALSKRSSAVTIFAWG | inactive |
| NLASCFVSIVEGSHFVYC | 1.9 ± 0.1 |
| VCMFEFMDKFWNFVVTAEQC | inactive |
| FLPRLSNIWPNFDSSEQLRY | inactive |
| PRPLGLFTSYDNGLGYRQGQ | inactive |

| Substance | amyloid nucleation score |
| --- | --- |
| RAALPMVFHRFLTFMDAFLV | 1.83 ± 0.075 |
| NILKKLNVRNHFLVLMKKHM | inactive |
| VSTCT | inactive |
| RWQRLSRHGISDSPLAREAA | -0.917 ± 1.8 |
| CEPMRYNCFCGFCIYDVRV | 2.36 ± 0.06 |
| WNTGNMLPSVFTQMFA | inactive |
| GAFSEDFRESGLFLNVREGE | inactive |
| LMIMSKVSKSP | 0.465 ± 0.25 |
| PQDQDDVKVLSRGVRYVWGH | inactive |
| RLQPFVHFVYCWESIVVCMW | 1.56 ± 0.068 |
| FCLRLTYVRS | 0.757 ± 0.22 |
| VGIKTFGESGMYQVCSQVSC | inactive |
| RQHGMLCSRSTRMVLFKS | inactive |
| SCRVTPVLR | inactive |
| ERSVPSGE | inactive |
| GNIVLMMSYILM | 2.3 ± 0.086 |
| VMWEPFAYLFISSWRYVSLK | inactive |
| RCNKRTEGVSE | inactive |
| DLQFGVGVTASPAAYCRYLS | inactive |
| LSMVRLNFTRIC | inactive |
| PSFFRKLFLPFASYLTMCGE | inactive |
| RYVSSLLSNLRGQKNCVSVL | inactive |
| IDVTQERRVGDSTCALGTH | -0.168 ± 0.73 |

| Substance | amyloid nucleation score |
| --- | --- |
| QLLFPGLWESATRILCENFM | inactive |
| YQGAFS | 0.341 ± 0.83 |
| FWGVSDGFMC | -0.141 ± 0.96 |
| LSFTHSSDTECCGER | inactive |
| SLDFIHRNFVARQCIHNKGH | inactive |
| DTYIGNINESMH | inactive |
| CFVGVTFDLSSDLCLFCNKV | inactive |
| WYALYSIWVKHTHLCERTVE | inactive |
| SFSPFVTFNKWSRWGLRNIG | inactive |
| SQKEGNKDRPVCVSGNSSCS | inactive |
| YDMTRHLYVSSPEIVKPY | inactive |
| TRSFVRSGAWNSLEGW | 1.16 ± 0.16 |
| MWEKFQWCNIINGINSVCVV | 0.962 ± 0.16 |
| SNLNWPWKYPNMWFLLS | inactive |
| PAERYKRSSLAKSYRLNYRS | inactive |
| HIPGNLYYKDTFRCAELGHW | inactive |
| NQCPIRYLWL | 1.43 ± 0.11 |
| FGVFVWEVVVGNMLLPHMVN | inactive |
| VFFYSDHVLCVYFVSLYSFS | 0.386 ± 0.42 |
| SNWVISVLVRVNLAYAYLTD | inactive |
| RTIHVGWVMAIIGTALRCCM | inactive |
| GDVIMCFNFRTFLSTITPGS | 1.96 ± 0.092 |
| NMYWSISDRFRIV | 0.424 ± 0.71 |

| Substance | amyloid nucleation score |
| --- | --- |
| DFYLDLITLDNRTTSSTSML | inactive |
| DFELFSSALGSLSNGHSENV | inactive |
| TFSFHLCIQEPTSFDNSLHT | 0.164 ± 0.36 |
| DFLYRGMNGSGFPLCIYQRC | inactive |
| DSYSIILCFHKNKLLVLLSP | 0.156 ± 0.42 |
| VWPNGSKKYGLSRMTANSLL | inactive |
| KSYMYILKWAVLVLCSRSGL | inactive |
| FIASNASNCWYLMFVAKLYG | inactive |
| TRLFRDNFHFLGRSLSATYV | inactive |
| IERSDSVSWRGVLVGIEMKV | inactive |
| FIYYDRFVKPSPKQTVSFSA | inactive |
| IICIYKIPKFTTRKLILRVY | inactive |
| ISFYKGYLKFNL | inactive |
| SVRFDDAMIDGITSAYMIKY | inactive |
| WIDGINWLSSLVTAIKHSVK | inactive |
| SYRFYDDQSLCG | inactive |
| FDSFLWLTMNWIELIGNILV | inactive |
| PLFGRCHRWGVTMQYSLLIG | inactive |
| AYADHHYRAGLRFPAGEVYW | inactive |
| ASTLLHYCLLNSGYEWSGQC | 0.251 ± 0.81 |
| IWIRAVDLGLDGLPSFFSIS | inactive |
| RRYSRVKVRRLFMRNNLMLN | 0.283 ± 0.15 |
| IYNSAFIGFSRLKVCVYALF | 0.471 ± 0.17 |

| Substance | amyloid nucleation score |
| --- | --- |
| QTQKLFQYI | inactive |
| TNWDKNYYSCYIIKGLRWER | inactive |
| IYPLMKTELGRTMILIDLLE | inactive |
| SVSVRRNYKLIFAASM | inactive |
| NTPVGLINYSGDTWLMAIRW | inactive |
| SHRKMFQGVKQVISSPETHS | inactive |
| VLNSRTTPFI | inactive |
| MQSNCTVMTNPNDKRMAAWW | inactive |
| FLGCNRV | inactive |
| YRLPMILKFLNWGFSYLVPF | inactive |
| KQLHLMLIVQIVATKTVNAP | inactive |
| LISINLVQTSPRPRHYYLCS | inactive |
| ERRRVRP | inactive |
| VSFMFFACDTFFSHAVIRTR | inactive |
| HDNQFYVMLWAISAAYRLAS | inactive |
| IVLIKDYYSIRFDSEGIVDI | inactive |
| MDAYRNHFMFTIIKFYSCES | inactive |
| LETLVKPLELGSYFDFCCWA | inactive |
| WMMMNFHLSMQD | 1.6 ± 0.087 |
| ANSWIILHSNHFLQFVGIAS | inactive |
| GSFAGCMGCLCYILVCSVYR | 0.717 ± 0.12 |
| GYDQKLES | inactive |
| GEVNTAFYSWPAMPVLADYG | inactive |

| Substance | amyloid nucleation score |
| --- | --- |
| LVYREGYIWVMFLIYSFWTV | inactive |
| TSYYSMVEHSLKYQDRLMSS | inactive |
| VVHYSLVVPSDGW | inactive |
| TCSMSTARSCSHKSNRVMHW | inactive |
| IVKRFHYYMSVRKLMSKFGL | inactive |
| TVQNVLCHCMMSNMAYWGHQ | 2.63 ± 0.082 |
| YFGNSGWDHGWPVVHKMSFS | inactive |
| AGGAMGVHRCPLLS | inactive |
| SCVGNLENTIYNMVVRNCCY | inactive |
| YCGNLYRDFLGQQPF | inactive |
| QIGFCS | inactive |
| HVKDVMQRNFRVMGSSSR | inactive |
| LHLMWMPVTCGEVALCDGQS | inactive |
| HENYEFLFWWRESFS | inactive |
| CVSRICVWPRYETTGFYAST | inactive |
| SNVLGWLRKLYS | inactive |
| CSSQTIRGTDKSHDVLAKLL | inactive |
| CCSSCVWGRVFRSSAMPPRI | inactive |
| LFFYNWVICRSNRYHGL | inactive |
